Target: T1, non-cleaved SNAP-25206 (UniProt P60880 1-206)
T1 construct: range 1-206; also called SNAP-25206 uncleaved substrate
Experiment: ELISA and Western blots

T1 sequence (P60880 whole entry): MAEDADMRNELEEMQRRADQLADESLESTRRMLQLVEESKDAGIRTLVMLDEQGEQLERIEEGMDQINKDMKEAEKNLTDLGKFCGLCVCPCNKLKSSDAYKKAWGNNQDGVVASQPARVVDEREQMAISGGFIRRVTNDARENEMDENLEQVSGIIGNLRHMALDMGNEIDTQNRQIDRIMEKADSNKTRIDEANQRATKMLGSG

B1: mouse monoclonal antibody produced by hybridoma pCNEI 32-7-1, 3614-000 (antibody, V domains shown)
VH: EVQLVESGGGLVQPKGSLKLSCAASGYTFNTYAVNWVRQAPGKGLEWVARIRSKSYNYVTYYADSVKDRFTISRDDSQSMLYLQMNNLKTEDTAMYYCVKGNGNYVSFAYWGQGTLVTVSA
VL: QLVLTQSSSASFSLGASAKLTCTLSSQHNTYTIEWYQQQPLKPPKYVMELKKDGSHSTGDGIPDRFSGSSSGADRYLSISNIQPEDEAIYICGVGDTIKEQFVYVFGGGTKVTVL
notes: also called monoclonal antibody of the invention; DSM ACC3261
B1: no binding.

— patent US20190023771A1 (MERZ PHARMA, published 2019)
